In the assay the target is 17b (CD4-induced human monoclonal antibody). Nature of the assay: flow cytometry of transfected 293T cells: staining with 10 μg/ml 17b with or without sCD4-183, detection with APC anti-human IgG F(ab')2, arithmetic mean APC fluorescence of live (propidium iodide negative) single cells; 'All titrations …. The settings on record: sCD4-183 at 0, 0.078125, 0.3125, 1.25, 5, 20, 80 μM (row value in value_extra.sCD4_183_uM), 20 min staining at room temperature, CAUTION: 17b staining of cell-surface trimers with sCD4, mostly reports trimer opening, normalized per Env, one titration each. Higher = more 17b staining of cell-surface Env. 17b's epitope is exposed, numbering: unknown, sequence starts at 1.

[1] abbreviates: AUC over sCD4-183 0-80 μM, parent: 0.907, scale: area under the normalized MFI curve, log10 x-axis.
Setting [2] is: sCD4-183 0 μM, parent: 0.0187, scale: normalized MFI.
The mark [3] stands for this setting: sCD4-183 0.078125 μM, parent: 0.0465, scale: normalized MFI.
Where [4] appears, read: sCD4-183 0.3125 μM, parent: 0.0578, scale: normalized MFI.
[5] abbreviates: sCD4-183 1.25 μM, parent: 0.0973, scale: normalized MFI.
The mark [6] stands for this setting: sCD4-183 5 μM, parent: 0.198, scale: normalized MFI.
Setting [7] is: sCD4-183 20 μM, parent: 0.585, scale: normalized MFI.
[8] abbreviates: sCD4-183 80 μM, parent: 1, scale: normalized MFI.

For the substance “HIV-1 JR-CSF envelope glycoprotein gp160 (Env), P20871 JR-CSF_H308A”, the screen value runs as follows: under setting [1], 0.82; under setting [2], 0.0195; under setting [3], 0.0512; under setting [4], 0.0642; under setting [5], 0.0948; under setting [6], 0.178. The screen value by setting is: under setting [7], 0.449; under setting [8], 1.

Regarding “HIV-1 JR-CSF envelope glycoprotein gp160 (Env), P20871 JR-CSF_N301A”, the screen value came out at 2.59 under setting [1]; 0.178 under setting [2]; 0.314 under setting [3]; 0.564 under setting [4]; 0.801 under setting [5]; 0.974 under setting [6]. Besides, the screen value runs as follows: under setting [7], 0.958; under setting [8], 1.

In the case of “HIV-1 JR-CSF envelope glycoprotein gp160 (Env), P20871 JR-CSF_I307A”, the screen value came to 3.25 under setting [1]; 0.46 under setting [2]; 0.691 under setting [3]; 0.871 under setting [4]; 0.946 under setting [5]; 0.908 under setting [6]. In addition, the screen value is, setting by setting: under setting [7], 1; under setting [8], 0.979.

For “HIV-1 JR-CSF envelope glycoprotein gp160 (Env), P20871 JR-CSF_T320A”, the screen value under setting [1] is 2.47; the screen value under setting [2] is 0.13; the screen value under setting [3] is 0.297; the screen value under setting [4] amounted to 0.477; the screen value under setting [5] came to 0.754; the screen value under setting [6] amounted to 0.942. Besides, the screen value by setting is: under setting [7], 1; under setting [8], 0.974.

For the substance “HIV-1 JR-CSF envelope glycoprotein gp160 (Env), P20871 JR-CSF_I309A”, the screen value stood at 3.03 under setting [1]; 0.326 under setting [2]; 0.555 under setting [3]; 0.777 under setting [4]; 0.912 under setting [5]; 0.974 under setting [6]. The screen value worked out at 0.97 under setting [7] and 1 under setting [8].

With “HIV-1 JR-CSF envelope glycoprotein gp160 (Env), P20871 JR-CSF_F176A”, the screen value under setting [1] came to 3.09; the screen value under setting [2] turned out to be 0.522; the screen value under setting [3] was 0.639; the screen value under setting [4] was determined as 0.761; the screen value under setting [5] came to 0.839; the screen value under setting [6] is 0.927. Besides, the screen value under setting [7] was 0.946 and the screen value under setting [8] turned out to be 1.

For “HIV-1 JR-CSF envelope glycoprotein gp160 (Env), P20871 JR-CSF_F210A”, the screen value is 0.0285 under setting [2]; 0.184 under setting [3]; 0.319 under setting [4]; 0.527 under setting [5]; 0.908 under setting [6]; 1 under setting [7]. Further, the screen value under setting [8] stood at 0.997.

As for “HIV-1 JR-CSF envelope glycoprotein gp160 (Env), P20871 JR-CSF_Y177A”, the screen value under setting [1] turned out to be 2.87; the screen value under setting [2] was 0.317; the screen value under setting [3] was determined as 0.576; the screen value under setting [4] stood at 0.719; the screen value under setting [5] amounted to 0.858; the screen value under setting [6] worked out at 0.82. Further, the screen value runs as follows: under setting [7], 0.942; under setting [8], 1.

Take “HIV-1 JR-CSF envelope glycoprotein gp160 (Env), P20871 JR-CSF_F317A”: the screen value turned out to be 3.03 under setting [1]; 0.358 under setting [2]; 0.582 under setting [3]; 0.76 under setting [4]; 0.878 under setting [5]; 0.942 under setting [6]. The screen value came to 0.988 under setting [7] and 1 under setting [8].

Take “HIV-1 JR-CSF envelope glycoprotein gp160 (Env), P20871 JR-CSF_Y173A”: the screen value amounted to 1.72 under setting [1]; 0.137 under setting [2]; 0.199 under setting [3]; 0.265 under setting [4]; 0.357 under setting [5]; 0.533 under setting [6]. For the same substance, the screen value worked out at 0.862 under setting [7] and 1 under setting [8].

With “HIV-1 JR-CSF envelope glycoprotein gp160 (Env), P20871 JR-CSF_W112A”, the screen value under setting [1] is 1.64; the screen value under setting [2] was 0.00342; the screen value under setting [3] came out at 0.153; the screen value under setting [4] turned out to be 0.255; the screen value under setting [5] is 0.378; the screen value under setting [6] is 0.566. The screen value by setting is: under setting [7], 0.852; under setting [8], 1.

In the case of “HIV-1 JR-CSF envelope glycoprotein gp160 (Env), P20871 JR-CSF_G324A”, the screen value was determined as 2.77 under setting [1]; 0.248 under setting [2]; 0.463 under setting [3]; 0.601 under setting [4]; 0.836 under setting [5]; 0.959 under setting [6]. Also, the screen value reads like this: under setting [7], 0.96; under setting [8], 1.

In the case of “HIV-1 JR-CSF envelope glycoprotein gp160 (Env), P20871 JR-CSF_D167A”, the screen value reads like this: under setting [1], 2.23; under setting [2], 0.0723; under setting [3], 0.181; under setting [4], 0.357; under setting [5], 0.663; under setting [6], 0.945. Further, the screen value reads like this: under setting [7], 0.977; under setting [8], 1.

Regarding “HIV-1 JR-CSF envelope glycoprotein gp160 (Env), P20871 JR-CSF_T303I”, the screen value amounted to 1.66 under setting [1]; 0.0358 under setting [2]; 0.0925 under setting [3]; 0.153 under setting [4]; 0.308 under setting [5]; 0.682 under setting [6]. Further, the screen value runs as follows: under setting [7], 0.979; under setting [8], 1.

Regarding “HIV-1 JR-CSF envelope glycoprotein gp160 (Env), P20871 JR-CSF_N156A”, the screen value by setting is: under setting [1], 2.72; under setting [2], 0.272; under setting [3], 0.437; under setting [4], 0.595; under setting [5], 0.796; under setting [6], 0.913. In addition, the screen value came out at 1 under setting [7] and 0.984 under setting [8].

With “HIV-1 JR-CSF envelope glycoprotein gp160 (Env), P20871 JR-CSF_I323A”, the screen value stood at 2.75 under setting [1]; 0.211 under setting [2]; 0.421 under setting [3]; 0.606 under setting [4]; 0.838 under setting [5]; 0.988 under setting [6]. For the same substance, the screen value runs as follows: under setting [7], 1; under setting [8], 0.946.

These data come from publication PMC11774494.
